± gives the uncertainty stated by the source.
Experiment: self-splicing fitness, log relative to wild type (ln ratio); higher = more splicing; Tetrahymena group I intron in knt gene, E. coli kanamycin selection, DiMSum; sequences stand for … in CUCUCU…GGAGGGAAAAGUUAUCAGGCAUGCACCUGGUAGCUAGUCUUUAAACCAAUAGAUUGCAUCGGUUUAAAAGGCAAGACCGUCAAAUUGCGGGAAAGGGGUCAACAGCCGUUCAGUACCAAGUCUCAGGGGAAACUUUGAGAUGGCCUUGCAAAGGGUAUGGUAAUAAGCUGACGGACAUGGUCCUAACCACGCAGCCAAGUCCUAAGUCAACAGAUCUUCUGUUGAUAUGGAUGCAGUUCACAGACUAAAUGUCGGUCGGGGAAGAUGUAUUCUUCUCAUAAGAUAUAGUCGGACCUCUCCUUAAUGGGAGCUAGCGGAUGAAGUGAUGCAACACUGGAGCCGCUGGGAACUAAUUUGUAUGCGAAAGUAUAUUGAUUAGUUUUGGAGUACUCGUGGUCG
How it was run: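 Six replicate transformations of E. coli BL21(DE3) with a pET-22b(+) library were grown overnight at 37°C or 30°C. The library randomised all eight P1ex-region intron nucleotides, the intron lying in the knt kanamycin-resistance gene, and plates were LB agar with or without 25 μg/mL kanamycin plus 100 μg/mL carbenicillin, 50 μM IPTG and 0.2% rhamnose. Pooled colonies were amplicon-sequenced on an Illumina HiSeq 2500, and fitness is the DiMSum error-weighted combination of wild-type-normalised replicate fold changes, kanamycin versus none.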

| Sequence | self-splicing fitness (ln) (30 °C) | self-splicing fitness (ln) (37 °C) |
| --- | --- | --- |
| GUCAAGCAAUAUUACGGCUC | -0.927 ± 0.057 | 0.181 ± 0.084 |
| GUAUAGCAAUAUUACGCAUG | -3.35 ± 0.24 | -1.01 ± 0.17 |
| GGUAAGCAAUAUUACGCGUA | -0.32 ± 0.21 | -0.425 ± 0.15 |
| AUUGAGCAAUAUUACGACAA | -2.28 ± 0.29 | -1.31 ± 0.23 |
| GGUGAGCAAUAUUACGGCUG | -1.06 ± 0.15 | -0.543 ± 0.21 |
| AACCAGCAAUAUUACGAGCU | -2.52 ± 0.087 | -1.82 ± 0.1 |
| GCGCAGCAAUAUUACGGCAU | -0.756 ± 0.075 | 0.684 ± 0.11 |
| GCAUAGCAAUAUUACGACCA | -0.207 ± 0.11 | -0.544 ± 0.14 |
| UGAAAGCAAUAUUACGAUGU | -3.04 ± 0.2 | -1.81 ± 0.21 |
| GCCCAGCAAUAUUACGCUCC | -0.416 ± 0.11 | -0.675 ± 0.12 |
| AAACAGCAAUAUUACGAACG | -2.5 ± 0.12 | -0.625 ± 0.12 |
| UAGGAGCAAUAUUACGUCUA | -0.313 ± 0.11 | 0.198 ± 0.13 |
| UGAAAGCAAUAUUACGUUUC | -3.14 ± 0.34 | -2.03 ± 0.28 |
| GGAAAGCAAUAUUACGGUGA | -1.01 ± 0.15 | -0.6 ± 0.16 |
| CUAAAGCAAUAUUACGUUUA | -4.12 ± 0.16 | -2.81 ± 0.17 |
| GUAGAGCAAUAUUACGUUUA | -2.09 ± 0.17 | -1.39 ± 0.17 |
| AUCUAGCAAUAUUACGAGGU | -5.03 ± 0.45 | -3.28 ± 0.43 |
| UACCAGCAAUAUUACGCGUG | 0.016 ± 0.081 | 0.0464 ± 0.099 |
| CAGAAGCAAUAUUACGUGGG | -3.34 ± 0.17 | -2.6 ± 0.16 |
| CCGUAGCAAUAUUACGUGAC | -2.36 ± 0.15 |  |
| UUUAAGCAAUAUUACGGUUA | -1.35 ± 0.12 | -0.505 ± 0.1 |
| ACUAAGCAAUAUUACGUGAU | -1.65 ± 0.062 | -1.21 ± 0.077 |
| AUACAGCAAUAUUACGCUGA | -2.14 ± 0.099 | -0.86 ± 0.1 |
| CUACAGCAAUAUUACGCGUU | -4.43 ± 0.23 | -2.37 ± 0.21 |
| GUCAAGCAAUAUUACGCGUG | -2.92 ± 0.16 | -1.78 ± 0.16 |

| Sequence | self-splicing fitness (ln) (30 °C) | self-splicing fitness (ln) (37 °C) |
| --- | --- | --- |
| CACAAGCAAUAUUACGAAGC | -4.44 ± 0.28 | -1.87 ± 0.19 |
| GCCGAGCAAUAUUACGCUCG | -2.94 ± 0.27 | -2.02 ± 0.26 |
| CGACAGCAAUAUUACGAAGC | -2.91 ± 0.24 | -3.43 ± 0.35 |
| UUGGAGCAAUAUUACGGACC |  | -2.55 ± 0.33 |
| GGGUAGCAAUAUUACGAUUU | -0.0881 ± 0.1 | -0.476 ± 0.099 |
| GCAAAGCAAUAUUACGGAUA | -2.49 ± 0.13 | -1.6 ± 0.1 |
| AGCUAGCAAUAUUACGGGAA | -3.13 ± 0.28 | -1.67 ± 0.22 |
| CUAAAGCAAUAUUACGGCGC | -2.54 ± 0.21 | -2.38 ± 0.45 |
| ACUGAGCAAUAUUACGUAGC | -3.07 ± 0.12 | -1.66 ± 0.13 |
| GAUUAGCAAUAUUACGUGGC | -3.36 ± 0.25 | -2.3 ± 0.21 |
| AGCAAGCAAUAUUACGCAGG | -2.95 ± 0.16 | -1.63 ± 0.12 |
| UUGCAGCAAUAUUACGGCCU | -1.03 ± 0.095 | -0.864 ± 0.18 |
| AGUCAGCAAUAUUACGAAAC |  | -1.45 ± 0.28 |
| AGAAAGCAAUAUUACGAAAC | -3.2 ± 0.25 | -2.93 ± 0.24 |
| CAAGAGCAAUAUUACGAUCU |  | -1.79 ± 0.31 |
| CUCUAGCAAUAUUACGGAAA | -3.74 ± 0.3 | -3.54 ± 0.23 |
| ACAAAGCAAUAUUACGUCCG | -0.802 ± 0.049 | -0.466 ± 0.063 |
| CUGUAGCAAUAUUACGGGUU | -3.94 ± 0.23 | -3.13 ± 0.31 |
| GACAAGCAAUAUUACGCAGC |  | -1.7 ± 0.22 |
| GAACAGCAAUAUUACGUAUU | -1.57 ± 0.063 | -0.99 ± 0.075 |
| CGUUAGCAAUAUUACGAACC | -0.385 ± 0.069 | -0.0684 ± 0.073 |
| ACAAAGCAAUAUUACGGACU | -0.0658 ± 0.051 | 0.338 ± 0.079 |
| CAGGAGCAAUAUUACGUAUU | -2.97 ± 0.21 | -2.2 ± 0.18 |
| GCGUAGCAAUAUUACGACGG | -3.73 ± 0.48 | -2.79 ± 0.43 |

Reference: the supplement of paper PMC7877785
